Where two headings read alike, the source gives them in different places.
Assays:
TGFβ1 [1] = target: T1, TGFβ1 (UniProt P01137 279-390, limits assumed); assay: ELISA, TGFb1 coated at 1 ug/mL, HRP goat anti-human IgG-Fc
T1 construct: also called TGFβ1 protein
Procedure: (§1) TGFβ1 was diluted to 1 μg/mL with PBS buffer at pH 7.4, added into the 96-well ELISA plate at 100 μL per well, coated overnight at 4° C., and blocked with 1% BSA blocking solution for 1 hour. The plate was washed 3 times with PBST, and the constructed expressing antibodies were diluted to 20 µg/mL with 0.5% BSA sample diluent as the starting concentration, and then diluted by 3-fold gradient (11 gradients in total). A negative control (blank well and IgG1 isotype control) and a positive control were set, and the positive control was TGF-βR2 (Acro, Cat: TG2-H5252), and incubated at 37° C. for 1 h at 100 μL per well. The plate was washed 3 times with PBST, and then HRP-labelled goat anti-human IgG-Fc was diluted with the sample diluent at 1:10000. […] The absorbance value of each well in the 96-well plate was determined by selecting the wavelength of 450 nm and the reference wavelength of 570 nm on a multifunctional enzyme marker, and the absorbance value (OD)=OD₄₅₀ₙₘ−OD₅₇₀ₙₘ. The logarithm of the concentration of the constructed antibodies were taken as the abscissa, and the measured absorbance value of each well was taken as the ordinate, and the Sigmoidaldose-response (Variable Slope) method (GraphPad Prism software, GraphPad Software, San Diego, California) was selected for nonlinear regression to obtain the binding curve of the target antibodies to the TGFβ1 protein.

TGFβ1 [2] = target: T1, TGFβ1; assay: as above; remark: listed apart in the source
Procedure: as §1

TGFβ1 [3] = target: T1, TGFβ1; assay: as above; remark: listed apart in the source
Procedure: as §1

Human-NKP30-His [4] = target: T2, Human-NKP30-His (human, UniProt O14931 19-135); assay: ELISA, Human-NKP30-His coated at 0.5 ug/mL, HRP goat anti-human IgG-Fc
T2 construct: also called NKP30 protein; not shown: His tag
T2 sequence (looked up): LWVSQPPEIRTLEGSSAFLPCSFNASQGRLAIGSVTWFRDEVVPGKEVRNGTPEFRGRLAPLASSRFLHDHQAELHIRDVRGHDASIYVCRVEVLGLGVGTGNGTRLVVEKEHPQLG
Procedure: (§2) Human-NKP30-His was diluted to 0.5 μg/mL with PBS buffer at pH 7.4, added into the 96-well ELISA plate at 100 μL per well, coated overnight at 4° C., and blocked with 1% BSA blocking solution for 1 hour. The plate was washed 3 times with PBST, and the constructed antibodies were diluted to 10 μg/mL with 0.5% BSA sample diluent as the starting concentration, and then diluted by 3-fold gradient (11 gradients in total). A negative control (blank well and IgG1 isotype control) and a positive control were set, and the positive control was a NKP30 humanized antibody (sequence shown in SEQ ID No.32), and incubated at 37° C. for 1 h at 100 μL per well. […] The absorbance value of each well in the 96-well plate was determined by selecting the wavelength of 450 nm and the reference wavelength of 570 nm on a multifunctional enzyme marker, and the absorbance value (OD)=OD₄₅₀ₙₘ−OD₅₇₀ₙₘ. The logarithm of the concentration of the constructed antibodies were taken as the abscissa, and the measured absorbance value of each well was taken as the ordinate, and the Sigmoidaldose-response (Variable Slope) method (GraphPad Prism software, GraphPad Software, San Diego, California) was selected for nonlinear regression to obtain the binding curve of the target antibody to NKP30 protein.

Human-NKP30-His [5] = target: T2, Human-NKP30-His; assay: as above; remark: listed apart in the source
Procedure: as §2

Human-NKP30-His [6] = target: T2, Human-NKP30-His; assay: as above; remark: listed apart in the source
Procedure: as §2

Human-NKP30-His [7] = target: T2, Human-NKP30-His; assay: as above; remark: listed apart in the source
Procedure: as §2

Human-CD24-His [8] = target: T3, Human-CD24-His (human, UniProt P25063 27-59); assay: ELISA, Human-CD24-His coated at 1 ug/mL, HRP goat anti-human IgG-Fc
T3 construct: also called CD24 protein; not shown: His tag
T3 chain (looked up): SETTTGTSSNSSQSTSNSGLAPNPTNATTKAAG
Procedure: (§3) Human-CD24-His was diluted to 1 μg/mL with PBS buffer at pH 7.4, added into the 96-well ELISA plate at 100 μL per well, coated overnight at 4° C., and blocked with 1% BSA blocking solution for 1 hour. The plate was washed 3 times with PBST, and the constructed antibodies were diluted to 20 μg/mL with 0.5% BSA sample diluent as the starting concentration, and then diluted by 3-fold gradient (11 gradients in total) and incubated at 37° C. for 1 h at 100 μL per well. The plate was washed 3 times with PBST, and then HRP-labelled goat anti-human IgG-Fc (jackson Cat: 109-035-098) was diluted with the sample diluent at 1:10000. 100 μL was added into each well, and incubated at room temperature for 1 hour. […] The absorbance value of each well in the 96-well plate was determined by selecting the wavelength of 450 nm and the reference wavelength of 570 nm on a multifunctional enzyme marker, and the absorbance value (OD)=OD₄₅₀ₙₘ−OD₅₇₀ₙₘ. The logarithm of the concentration of the constructed antibodies were taken as the abscissa, and the measured absorbance value of each well was taken as the ordinate, and the Sigmoidaldose-response (Variable Slope) method (GraphPad Prism software, GraphPad Software, San Diego, California) was selected for nonlinear regression to obtain the binding curve of the target antibodies to the CD24 protein.

Human-CD24-His [9] = target: T3, Human-CD24-His; assay: as above
Procedure: as §3

T1 sequence (P01137 279-390 limits assumed): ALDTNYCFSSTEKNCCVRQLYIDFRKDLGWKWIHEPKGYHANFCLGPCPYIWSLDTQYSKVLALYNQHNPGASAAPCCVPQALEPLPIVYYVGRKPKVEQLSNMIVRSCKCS

B1: TGF-βR2 (Acro, Cat: TG2-H5252) (receptor, UniProt P37173 23-159, looked up)
chain: TIPPHVQKSVNNDMIVTDNNGAVKFPQLCKFCDVRFSTCDNQKSCMSNCSITSICEKPQEVCVAVWRKNDENITLETVCHDPKLPYHDFILEDAASPKCIMKEKKKPGETFFMCSCSSDECNDNIIFSEEYNTSNPD
notes: Bought reagent
EC50 (read off the curve) (TGFβ1 [1]): ~0.04 µg/mL | EC50 (read off the curve) (TGFβ1 [2]): ~0.03 µg/mL | EC50 (read off the curve) (TGFβ1 [3]): ~0.03 µg/mL

B2: NKP30 humanized antibody (antibody, V domains shown)
VH: EVQLVESGGGLVQPGGSLRLSCAASGITFSRSVMGWFRQAPGKLRELVAGITSDDNTDYADSVKGRFTISRDNSKNTLYLQMNSLRAEDTAVYYCNILPDSRLGWGQGTLVTVSS
notes: It was detected with anti-human IgG-Fc
EC50 (read off the curve) (Human-NKP30-His [4]): ~0.03 µg/mL | EC50 (read off the curve) (Human-NKP30-His [5]): ~0.03 µg/mL | EC50 (read off the curve) (Human-NKP30-His [6]): ~0.02 µg/mL | EC50 (read off the curve) (Human-NKP30-His [7]): ~0.03 µg/mL

B3: Positive control (antibody, human IgG1, kappa, V domains shown)
VH: QVQLVQSGSELKKPGASVKVSCKASGYIFTDYAIHWVRQAPGQGLEWMGFINTATGEPTYADDFKGRFVFSLDTSVSTAYLQISSLKAEDTAVYFCTSGVHWGQGTLVTVSS
VL: DIQMTQSPSTLSASVGDRVTITCSASSSVSSMHWYQQKPGKAPKLLIYSTSNLASGVPSRFSGSGSGTEYTLTISSLQPDDFATYYCHHWTSYMYTFGGGTKVEIKR
notes: The sheet only prints 'Positive control'; also called CD24 monoclonal antibody
EC50 (read off the curve) (Human-CD24-His [8]): ~0.01 µg/mL | EC50 (read off the curve) (Human-CD24-His [9]): ~0.006 µg/mL

From patent US20240336682A1 (SHENGHE CHINA BIOPHARMACEUTICAL, published 2024)
